Laboratory results reported in publication PMC5429572, “Intrabodies against the Polysialyltransferases ST8SiaII and ST8SiaIV inhibit Polysialylation of NCAM in rhabdomyosarcoma tumor cells” (BMC Biotechnology, 2017).

Legend:
[1] = target: T1, Flag-HA-tagged ST8SiaII expressed in HEK293 cells (Mus musculus (assumed), UniProt O35696, N-glycosylated (several glycoforms, fully glycosylated about 60 kDa)); assay: co-IP; HEK293 cells co-transfected with Flag-HA-tagged polyST and myc-tagged intrabody; lysis in 50 mM Tris-HCl pH 8, 1 mM MgCl2, 1% NP-40; precipitated with anti-myc antibody and Protein G PLUS Agarose; blot with anti-FLAG M5; details: partners not purified
T1 construct: polysialyltransferase ST8SiaII; The empty vector of the control is pcDNA3-FLAG-HA; The CHO line of the functional rows carries N-terminally Flag-HA-tagged murine ST8SiaII; also called polyST; source: HEK293, transiently transfected, in lysate

[2] = target: T2, Flag-HA-tagged ST8SiaIV expressed in HEK293 cells (Cricetulus griseus (assumed), UniProt Q64690, N-glycosylated (several glycoforms, fully glycosylated about 55 kDa)); assay: as above; details: partners not purified
T2 construct: polysialyltransferase ST8SiaIV; The empty vector of the control is pcDNA3-FLAG-HA; The CHO line of the functional rows carries Flag-HA-tagged hamster ST8SiaIV; also called ST8SiaVI; polyST; source: HEK293, transiently transfected, in lysate
T2 sequence (Q64690 whole entry): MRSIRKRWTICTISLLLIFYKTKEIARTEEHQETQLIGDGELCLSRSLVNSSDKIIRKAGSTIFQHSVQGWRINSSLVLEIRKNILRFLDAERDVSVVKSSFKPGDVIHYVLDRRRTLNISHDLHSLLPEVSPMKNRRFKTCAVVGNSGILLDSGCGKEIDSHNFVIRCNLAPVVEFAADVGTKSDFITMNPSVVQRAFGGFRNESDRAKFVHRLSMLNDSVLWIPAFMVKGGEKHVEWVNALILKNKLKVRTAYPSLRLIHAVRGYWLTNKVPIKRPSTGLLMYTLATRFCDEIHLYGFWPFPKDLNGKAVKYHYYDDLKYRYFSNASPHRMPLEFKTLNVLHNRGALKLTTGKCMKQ

T1 sequence (O35696 whole entry): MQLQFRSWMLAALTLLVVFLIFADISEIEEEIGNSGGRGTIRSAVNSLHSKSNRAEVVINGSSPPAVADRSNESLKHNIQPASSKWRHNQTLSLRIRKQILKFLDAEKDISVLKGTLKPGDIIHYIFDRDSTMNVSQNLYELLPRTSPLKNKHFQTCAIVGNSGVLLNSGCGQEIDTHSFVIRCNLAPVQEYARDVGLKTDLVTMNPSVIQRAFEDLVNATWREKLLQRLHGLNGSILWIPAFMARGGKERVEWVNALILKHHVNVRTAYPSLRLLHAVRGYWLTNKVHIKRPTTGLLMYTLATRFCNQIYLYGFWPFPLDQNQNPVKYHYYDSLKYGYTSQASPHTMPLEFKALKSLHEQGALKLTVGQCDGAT

Row | binding result [1] | binding result [2] | Binder
1 | binds |  | αST8SiaII-IB (ER intrabody against ST8SiaII, scFv from mAb 3167) (scFv, V domains shown, synthetic linker, printed as (Gly4 Ser)3; Encoded with an N-terminal ER signal peptide from the vector pCMV/myc/ER; the myc tag is followed by the ER retention signal; also called anti-ST8SiaII-IB; anti-ST8SiaII intrabody; source: HEK293, transiently transfected (pCMV/myc/ER), in lysate; not shown: myc, C-terminal, kept) VH: QVQLQQPGAELVKAGASVKLSCKASGYTFTNYWMHWVKQRPGQGLEWIGEIDPSESYTNYNQKFKGKATLTVDKSASTAYMQLSSLTSEDSAVYYCTRGDYWGQGTTLTVSS VL: DVVVTQTPLSLPVSFGDQVSISCRSSQSLANSYGNTYLSWYLHKPGQSPQLLIYGISNRFSGVPDRFSGSGSGTDFTLKISTIKPEDLGIYYCLQGAHQPWTFGGGTKLEIK
2 |  | binds | αST8SiaIV-IB (ER intrabody against ST8SiaIV, scFv from mAb 3175) (scFv, V domains shown, synthetic linker, printed as (Gly4 Ser)3; Encoded with an N-terminal ER signal peptide from the vector pCMV/myc/ER; the myc tag is followed by the ER retention signal; also called anti-ST8SiaIV-IB; anti-ST8SiaIV intrabody; source: HEK293, transiently transfected (pCMV/myc/ER), in lysate; not shown: myc, C-terminal, kept) VH: EVQLQQSGAELVRSGASVKLSCTTSGFNIKDYYMHWVKQRPEQGLEWIGWIDPENGDTEYAPKFQGKATMTADTSSNTAYLQLSSLTSEDTAVYYCNYRFLAMEYWGQGTSVTVSS VL: NIMMTQSPSSLAVSAGEKVTMSCKSSQSVLYTSNQKNYLAWYQQKPGQSPKLLIYWASTRESGVPDRFTGSGSGTDFTLTISSVQAEDLAVYYCHQYLSSYTFGGGTKLEIK
